Molecular target: SARS-CoV-2 Spike蛋白 (去除末端19个氨基酸), 新冠假病毒表面 (SARS-CoV-2, UniProt P0DTC2 14-1254)
Assay: cell-based or functional assay

B1: 人鼠嵌合全抗体mhC3 (antibody, V domains shown)
VH: EVQLVESGGDLVKPGGSLKLSCAASGFTFNTYAMNWVRQTPGKGLEWVARIRSKSNNYATYYADSVKDRFTISRDDSQSMLYLQMNNLKTEDTAMYYCVTPYYGNYADWFTYWGQGTSVTVSS
VL: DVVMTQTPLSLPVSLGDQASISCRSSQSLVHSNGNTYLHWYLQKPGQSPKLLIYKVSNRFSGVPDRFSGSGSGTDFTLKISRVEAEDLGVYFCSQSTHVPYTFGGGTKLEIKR
notes: also called mhC3抗体; C3 (图5、图6)
中和新冠假病毒 EC50 (luciferase, Huh7细胞): 0.223 µg/mL

Source: CN111995674A (INST MILITARY MEDICINE ACADEMY MILITARY SCIENCES PLA, dated 2020)
